test: soluble on expression in E. coli; label from the status in PepcDB or PDB records

| Sequence | soluble on expression in E. coli |
| --- | --- |
| MVWSAFLHFYQIGNSGSNAYYTAAAKSMAASWKAFFFAALDPAGFITVDKPPVALWLQALSVKVFGVSDFSVLLPEALAADCIRGRAVWFACAAGVLVVDARVGRDKQHDSVCRTGFASGRSGHAGCWDAGGARWALAGRAKHRAAEDGNRLRDNSSLAALVVYLEQHAGKAKYLAATIRATEAAEMMLHTDRAVMAMGGFGGTDPVLTPEKLEQMAQNGEVKYFLLSGEDRGNNELVQWIQTHCKEVPSSQWGGGQSAAIGGMGRGGMTLYVYNG | not soluble |
| ANSKLTSDFDNPRWIGRHKHMFNFLDVNHNGKISLDEMVYKASDIVINNLGATPEQAKRHKDAVEAFFGGAGMKYGVETDWPAYIEGWKKLATDELEKYAKNEPTLIRIWGDALFDIVDKDQNGAITLDEWKAYTKAAGIIQSSEDCEETFRVCDIDESGQLDVDEMTRQHLGFWYTMDPACEKLYGGAVP | soluble |
| GPGSMTSTVTAVNQTQSLAAIRNFVRASVSCITYARGLCSDNAYEQRPFLGLPLRQLIPSTTESITISEWIEKGAFDALNRNYLKEMSLCVYDAACHELLESYCFGFNYTGDGERAQMTLNASQTIADGSKTTAVSQSSGGAVGIPAYRKRRCTKQEVQHLLTSILERLMDVVESLPPLLSERVLTMRLTYYDAVTPASYEPPCFAPASEHMARLYQAEVKHHVNIGSMDTSHHLFSVAIRHPLLQQIHRQMTGRTTSAVATKT | not soluble |
| MSLKKILVIGSKGFIGSNLVAYYEKINTIDVWGCDVISDYSSRNYFLIDASNSDFNEVFQQVAFDVCINCSGSASVPLSMINPGRDFHLNVLNVFNMLDSIRKNIPSCKFVNLSSAAVYGNPESLPIKEDTPINPLSPYGWHKLQSEILCKQFNQNFALHTCSLRIFSAYGIGLRKQLFWDWFQKINDAASMSIYGTGKESRDFIYIDDLIQCIECVVARGDFNAGIYNIANGQEIYIADAIKEFKKASGKSFEYTFTQETRPGDPINWVADISKLKTLGYQQQVTFEKGVEILMKWLQQEKEGHHHHHH | soluble |
| MGSDKIHHHHHHMKVVFVSYEVFPFAKVGGLADVAGTLPKYLKKHGVDVTIVMPKHRIVEKNAEKFGYEIKKVAESLSVSHVKTDQKFDIYESVLPGSDVKTYFVANDYYFSAEDVYAGPDLGEQAIFFCAATLDLVKHLDLKPDIVHVNDWQTALIPVYLKTVYRDDPYFSRTATVLTIHNLGYQGVFDPKYLSFAGLPDYVYTIDGLEFYGQLNFLKGGIVFSDVINTVSPTYAEEIQTEEYGEKLDGVLRMRSKDLYGILNGIDYELYNPATDRYIYVNYDVNRLELKWENKVKLQEELGLPVNKETAVAGLISRLVPQKGLDLLVDVMDYLTLFDLQIVVLGTGDEQYENAFRKFQERYPDKVSANIKFDVELAQKIYAGADIFLMPSRYEPCGLGQMFSMRYGTIPVVRYTGGLADTVKEYDPQSMEGTGFGFKKYDSAHLLKAVSKALHFYYREKDHWRRIMTNAMNTDLSWDRSAKEYVDLYKKALAKVGR | not soluble |
| MKKRALVSVSDKTGVVEFVKGLLEQGIEVISTGGTKKLLEENGLQVIGISEVTGFPEIMDGRVKTLHPNIHGGLLAVRDNETHVAQMNELGMEPIDFVVVNLYPFKETIAKPDVTFADAIENIDIGGPTMIRSAAKNHKFVSVIVDPVDYDVVLAELKENGEVAEETKRKLAAKVFRHTAAYDALISNYLTEQMGEESPETLTVTFEKKQDLRYGENPHQKATFYKAPFAATSSVAYAEQLHGKELSYNNINDADAALSIVKEFTEPAVVAVKHMNPCGVGVGTDIHEAYTRAYEADPVSIFGGIIAANREIDKATAEKLHEIFLEIIIAPSFSKEALEVLQSKKNLRLLTVNIEKATSASKKLTSVQGGLLVQEEDTLSLDESTISIPTKREPSEQEWKDLKLAWKVVKHVKSNAIVLAKDDMTIGVGAGQMNRVGSAKIAITQAGEKAQGSALASDAFFPMPDTVEEAAKAGITAIIQPGGSIRDEDSIKVADTYGIAMVFTGVRHFKH | not soluble |
| MEFGEKLIHLRKKNRLTQKQLAAKIGTTASTISKYENDNHRPPIFILAKLAEILGTTTDFLLDDVAGLREKNSVNAFPLIGNPELEKWYLELPYTYSEEELLMLKRIADAIENKK | not soluble |
| MSLVSTRLNDSQCLVQFSCNRFAKILLGQTLIWVNPSNTRKWGKSKKVNPQITSMEPLELLKKYVRDEKLIKHCIATAAVMKSLARELGEDEEKWWTIGILHDIDYEQTQGDMEKHGLVGAEILLKEGVEEEIAEVVKRHNHMLFGDYEKPVEIALQAADSVSGLVIACALVKGGKITEVTPKTVKKKFKEKSFAAGCDRDRIRMIEKLGMPLEKLYEVAIRGLTEVKDELGLS | not soluble |
| MFAYDRLALDLAVFNLKDVDSGNSSSSERSSPPTRIMSQAQNINDESGSSGYGSPTRTPLASPSNDIFSSVLPLQVQRAFSAQSPEEITRHFGVSPSPQAVKPVPEVQQQREQAQVSQTSAQGLAAVDGFSMAEIAGFAELLSSPKKTPPPRYQCHICYATGHHYISDCPQRFNTPYDELTPYQGRKKCYGEFTCQLCKRKWNSQNSVANEPQSCIKCHVPVFPHKQLPVEKAVTLGLIKAQNVTKVAPIGHGRPPARKHEEISRRH | not soluble |
| MGSDKIHHHHHHMDDGYIAEFALYRSLMKNLPWDTYQLFIDVARNGGLTGAVQSTGLSAATLGRRMVELEQKLGRILFHRAQTGYTLTVDGRALLDHLKSFEAAERGIDLWRQQTSQPALVRVTAGTWISWLIAQNLPKLCRSNDRFRLDLHITEERAALAHRETDIGIRAFEPQESNLARVPLGEVAYAAYRHRLADELEGQPWIAVAQDAAISAYLKWPHQHKAEQILITVNRPRSLKDMAVSGMGLAVLPCFVGDSHPQLQRVGDEITELRHRQWLVTNNDDRHRSEIRDCAGRLVTLMRDFSDAFAGRR | not soluble |
| METPIAEELAKKQKSISVAEFFEKNRQILGFDSAPRSLITTVKEAVDNALDACEEAGILPDILVQVERTGPDYVTVIIEDNGPGIVREQIPKVFAKLLYGSRFHALKQSRGQQGIGISAAVLYAQMTAGRHTKILSKTSPTAPAHYYELMINTSTNEPDILVDEVRDWFRPHGTQIELEMRAAYVKGRRQSIYEYLKATAIVNPHARITLIDPDGNEEVFERATDKMPEPAEEILPHPEGIELGTLMKMLHYTERQKLAPFLRYSFCKIGLLTAEEICKAAGLDPEIDPHALGRHEARKLIEAFEKVKIMAPPTDCLSPIGEDLIYRGLEKETTVDFIATSTRKPAVYSGNPFVVEVGMAYGGNLPKEEKISIMRFANRVPLLYQQGGCVTTHAVEDIKWKQYGLNQPGGGIPVGPVILLIHVASINVPFTSESKDAIADIPVIKEEIDLAIKEVARKLKHYLSKQSNLKKRREKEIIITKVLPKLAAKVAHVLEKDVPDINPVVAKIMGNLLVHRVIKNNGDGTVDVAIKVKNFGTSAYSFRVHEMLPCKVSGAKPEPKVVTMGNDYDYVWDISASAGSSKVLSYKIESASEEELQKLPQLIVEGIEEELVTGAKAFKGV | soluble |
| MAVKQPVPKDPAKVERIMHAAMHTFAVSGYRDAKTDVIASAATVSKGLLFHYYGSKQRLYLATVQLATDTIIATINQQVFDVPDDLVTLMVRSARYKAAFGKDHPDEMKVLIDAYGALERLPVKIQAQMKILYTKSMTISREMISQVLDKMTLRADVDRDATIALIMGVYNQIFMEFQTYMRENHQVESMADIEWVVSRAKTYMGILEHGFMAADLDDQQ | not soluble |
| AEASADLRADAMAKDRSEEERTTEAEKNERVQKHLKALTSELANARDESKKTANDMIHAENMRLGRDKYKTLRQIRQGNTKQRIDEFESM | soluble |
| MKMKQVSRSALVSFSAEQMFHLVNDVARYPEFLPGCSGSCVLEQSEAHMVASVDVSKAGISKTFTTSNQLTPGVSIAMSLVDGPFKTLRGGWFFTPLDEAACKVELRLEFEFSSKMIELAFGKIFNELTSNMVNAFTRRAKQVYGEMAGDPLEHHHHHH | not soluble |
| HHPEAGNFKQRVILSHVGFDRPTVLVTEGYTAHYATHPRYQEELSKLFNANLVFVEYRYFGESMPKPCNWDYLTVENSLYDLHHVTTTLKQLYDEKWIATGISKGGQTTMFYRTYFPDDVDISVPYVAPLNQSLEDGRHEPFIANKVSTPENRKRVENFQLEVLKRKSRLLPIFEKYCSDKGYTFRIPIAEVYDFNVLEYSFALWQWGTPVNKIPETNADDHTLFKHFMAICEPDYFSEQSPYPSFNVQAAKELGYYGYDIKPFKKYLTIKSSRDYLHKVMLPPELSNLKFDKTLYNKVVKFLKENDPEMIYIYGGDDPWTASGVTWLKNKKNIKVYVLPGGSHTTRIGSFDTDTQEEIKTQINAWLNKE | not soluble |
| MTAAMYDLMDYDEVLEKFDPVMGLEVHVELATETKMFSAPSAHFGAEPNSNVDPVSLGLPGALPVVNAKGVEWAIKIGLALNCKIAESSRFARKNYFYPDQPKNYQISQYDEPIAYDGYLDVVLDDGTPWRVEIERAHMEEDTGKLTHLGGADGRIHGATASLVDCNRAGIPLIEIVTKPIEGAGERAPEVARAYVGALRDLVKALGVSDARMDQGSMRCDANVSLRPVGTVEFGTRTETKNINSLKSVEQAVRYEMQRQAQVLEDGGEIVQETRHYQETDGSTSKGRPKETAEDYRYFNDPDLPPVIAPKEWVEEIRATLPELPWIRRARIQKEWGLKDEEMRDLVNAGALDLIVETVEAGASASEARSWWVAYLSQKANESGVELDSLSITPQQVARVAALVKEGKLTNKLARQAVDGVLAGEGDVDEVVAARGLEVVRDDGAIEKAVDEALAANPDIVEKYKAGNTKVTGAIVGAVMKATRGKADPAQVNKLIAEKLA | not soluble |
| MSLTHAILFDLDGTLVDHASAARAALHAWSPTVGVDTDVERWIELDKWGFARFERGETTHLGQRRDRIRAYLNRELDDATCDDIYSGYLKAYEQNWTAYPDAKGVLDRAVATGAPVGILTNGAAPMQQDKLDRTGLGLPELVMLAASTLDSAKPRPEMYARALTHLGARTATIIGDDWTNDVAAPRELGWNALYLDRSGTDPRADIHSLDELFHEGHHHHHH | soluble |
| MKRLLKEKEGIRLEFKEARTALPGNLFETICSMLNHDGGDIVLGVSDDGTVAGVEHAKMETMVSNLVNLSNNPQKLDPPFILFPQTYEIDGKWLIHIQVPSSSQVHKTSGIVFNRSNDGDFRVTQPQQIAEIYNRKRMHYTEGIIYPGLRFEDFKVDLFPKVRNLIRSNNPNHPWLALTDQQMLEKAGLWKRDINSTQEGYTLAAALLLGKDEVIQQLLPFFKIDALVRIEDIYRYDDREYIQTNLIEAYEQLMTFVGKHLPDKFYMEGDQRVSLRNKIFREIAANLIVHREYMNAYPCTFIIYSDRVETENANNPHGEGPIDPEHFAPFPKNPTIIKFFMQLGRVDELGSGILNVNRFIKEYANGGSSQFIEGNVFKMIIPVAGEKIEGAIEGAIEGAIEGAIEGATKKVKDKLAILLKAIAENEGKKVPDYVVITKIPRSSIERYIKQLREANLIDFRDKATLIGGYYLTSKMKQKLKEKSLEHHHHHH | not soluble |
| MSLTNQAYPMALVSQDSLDSYIRSVNGYPMLSADEERELAERLHYKGDIDAAKGLILSHLRFVVHVARGYSGYGLPMADLVQEGNIGLMKAVKRFNPEMGVRLVSFAVHWIKAEIHEYVLRNWRIVKIATTKAQRKLFFNLRKSKKRLGWFNNGEVETVARELGVEPAEVREMESRLAAQDAAFEMSAEDDENGMAYTAPVLYLEDKHSDLADNLEAENWEAHTTQRLSMALASLDERSQHIVRARWLDDDNKTTLQDLAEMYGVSAERIRQLEKNAMRKLKEAVGEEGHHHHHH | soluble |
| MFREESRSVPVEEGEVYDVTIQDIARQGDGIARIEGFVIFVPGTKVGDEVRIKVERVLPKFAFASVVE | soluble |
